Consider 1 protein from FireProtDB (doi:10.1006/jmbi.2001.4521).

For this data set the following is noted: Drosophila melanogaster, pH 6, Thermal, CD, phosphate 50 mM, Na2SO4 0.4 M, whole UniProt chain shown.

B1: Growth factor receptor-bound protein 2 wild type, Q08012 (protein)
chain: MEAIAKHDFSATADDELSFRKTQILKILNMEDDSNWYRAELDGKEGLIPSNYIEMKNHDWYYGRITRADAEKLLSNKHEGAFLIRISESSPGDFSLSVKCPDGVQHFKVLRDAQSKFFLWVVKFNSLNELVEYHRTASVSRSQDVKLRDMIPEEMLVQALYDFVPQESGELDFRRGDVITVTDRSDENWWNGEIGNRKGIFPATYVTPYHS
As for B1, the Tm (in general, the temperature at which the thermal transition is half complete) was 63.7 °C. Also, the unfolding free energy (25 °C) amounted to 1.8 kcal/mol.
